# Experimental data taken from the DeepSol protein solubility set.
# Test: soluble on expression in E. coli; label from the status in PepcDB or PDB records
row,Sequence,soluble on expression in E. coli
1,MGSDKIHHHHHHMNAIAKHKENLLLDGFTIIDDIYSDEEVQQILAVIENADMSNETFRKSSDLFAIRQFLKEIPEAKELIYNKNLKKVGAELFGTDFFTVKSIYFDKPETSNWYVAYHQDLTISVDTKIDLAGFGPWTVKQNQFAVQPPLEILKNIFTIRIHLDDTNEENGALKVVPGSHAKNIYRPETIDWSVEKEISCNVKKGGIMIMKPLLLHSSGRTTNNKKRRVIHIEFSNQELPVELNWAERLN,not soluble
2,MNKLLTSKSEIIERKIRYDSTTVEHTCLLLEKQLRSIVLFHEVQYSFTMNTHDSSLTIPKGSYTIAYYWEDRPYNLYIWRDKDGMYVGSYFNVVKNTQITDELVSFEDLIIDILVLPSGEYFILDEDELPESLEEFEDGYVNEALHVLEEIIQKTLPQMIVETERVRLN,not soluble
3,MCMMSHNKAFFLSLQHAAVSGVAVCLSVRRGAGSVPAGNRGKKTIITEYRITGTRALARCPTKPVTSMWNSSWTSRLEHHHHHH,not soluble
4,MQFLQNIPPYLFFTGKGGVGKTSISCATAIRLAEQGKRVLLVSTDPASNVGQVFSQTIGNTIQAIASVPGLSALEIDPQAAAQQYRARIVDPIKGVLPDDVVSSINEQLSGACTTEIAAFDEFTGLLTDASLLTRFDHIIFDTAPTGHTIRLLQLPGAWSSFIDSNPEGASCLGPMAGLEKQREQYAYAVEALSDPKRTRLVLVARLQKSTLQEVARTHLELAAIGLKNQYLVINGVLPKTEAANDTLAAAIWEREQEALANLPADLAGLPTDTLFLQPVNMVGVSALSRLLSTQPVASPSSDEYLQQRPDIPSLSALVDDIARNEHGLIMLMGKGGVGKTTMAAAIAVRLADMGFDVHLTTSDPAAHLSMTLNGSLNNLQVSRIDPHEETERYRQHVLETKGKELDEAGKRLLEEDLRSPCTEEIAVFQAFSRVIREAGKRFVVMDTAPTGHTLLLLDATGAYHREIAKKMGEKGHFTTPMMLLQDPERTKVLLVTLPETTPVLEAANLQADLERAGIHPWGWIINNSLSIADTRSPLLRMRAQQELPQIESVKRQHASRVALVPVLASEPTGIDKLKQLAGHHHHHH,soluble
5,MGSDKIHHHHHHMLIKLNDYEKNITQKIKDLKNASGSHSPSIFTMAEQIPELNIKIDSCFLSNPYATALFLRYLKEELIDGQKLRSVLEFYPSQNSIIAKTVADFIGIDPKNVFIGNGAIEIIQAVMHNFVGKKIIVNIPTFSSYYEFAKSETNVVYYQLSKEDNYNLNIEHYLNFVKNENPDSVVLINPNNPDGGYINYEKLRYILSELKYVKNIIIDESFIHFAYENKDYNGINIEYLFKEFHNTIIIKSMSKDFGVAGIRIGYAIMSEDKIRGLLKNGYLWNSSGLSEYFLRLYVRKNFFDEYDKVRREYIQETQTFFRKLSGIKQFKVYPSMANFALVELLDGSSSTDFVAKMLIKYGIYMRTCNDKIGLEGEFIRIASRTLEENDMVLKSICDVFKE,not soluble
6,MSLKFPRKGIPQEEVMRELEKYTSKDLSFSSGKILGSMCTLPHELAKEVFCMYMDRNLGDPGLHPGTKKIEEEVIEMLSDLLHLERGYGHIVSGGTEANILAVRAFRNLADVENPELILPKSAHFSFIKAGEMLGVKLIWADLNPDYTVDVKDVEAKISENTIGIVGIAGTTGLGVVDDIPALSDLARDYGIPLHVDAAFGGFVIPFAKELGYDLPDFDFKLKGVQSITIDPHKMGMAPIPAGGIVFRHKKYLRAISVLAPYLAGGKIWQATITGTRPGASVLAVWALIKHLGFEGYMEIVDRAMKLSRWFAEEIKKTPGAWLVREPMLNIVSFKTKNLRRVERELKSRGWGISAHRGYIRIVSHASCDGGHDEGHHHHHH,soluble
7,MGSDKIHHHHHHMQLTVWTYEGPPHVGAMRVATGMEGLHYVLHAPQGDTYADLLFTMIERRDRRPPVTYTTFAARDLGKDTAELFKTAAQNAYDRFKPQAMIVGASCTGSLIQDDPGGLAKALALPIPVVAIDLPAYQRKENWGAAETFYQLVRAIAGPKAPPPGSKRPERPAGKRPSCNLLGPTALGFRHRDDIIELTTLLGKLGIDVNVTAPMGATPADLARLGEADFNVVMYPETASQAASWLHRMFHQPFTKIVPIGVSATREFIEEVAKLADVDPTAVLKSYSSRLPWYSHSVDSTYLTGKRVFIFGDATHVVAAARMASDEMGFKVVGLGTYSREFGREIREAAKLYDVEPLITDDYLEVEAKVAELHPELVLGTQMERHIAKRLGVPCAVISAPVHVQDFPARYAPQMGFEGANVIFDTWVHPLMMGLEEHLLTMFRDDFEFKDGATPSHLGVGHAPAPAPAVADSAAVEVLDATTATTTETTTAVWAADAEKELRKIPFFVRGKARRNTERFANENGVATITVETLYDAKAHFSR,not soluble
8,MPLEASELKPTAGPLEASELKPTAGPLEASELKPTAGPLEASELKPTAGPLEASELKPTAGPLEASELKPTAGPLEASELKPTAGMEKTKKIAVMSGKGGVGKTTVAVNLAVALAAEGYQVGLLDLDLHGPNVQRMLGVSLPPSEGEKIVPAKYGDSLKVFSLAMILQEGAPVIWRGPLKHKAIEQLTRDVEWGDLDYLICDLPPGTGDEALSTFQIIKPDAVIVVSTPQKVAGDDVRRAINFVKRLSGKILGLVENMSYLVCPNCGEKIYVFGKGETEKLAEEFGIPLIARIPMDPEVVSLSDEGRPAVVYKRGTVIEEEFKKIVEKVLSLLEHHHHHH,not soluble
9,MFAPSTVYTYGHHGSGTDEDDGQQVMPGMDNGDGQCMVCGDRSAGKHYGVMACYGCKGFFRRTIRSQQTYTCRFTQKCAIDKDQRNACRYCRFQRCLTVGMEPEAIRPDRDVIGKQKNPRKKKMKSDTNSGSIDASLPSPNGCDSPVSNNEDVILSFLLDVEDQATCGNNHITMPIGISMMMKNDPDFDVSTLFHSQYVRNQESFPITYAVGRTASVEQLIAALRRYVLSAVHWIDALFNLAHLTEIHDKTTLLKSVIGPFTIFNIAARTAQISDGDLICLCNKSTINRQPARHLLDTNLVGNNFVGRVIDDLVFPTKKLALTNPEITILSALIILDPDARGLSQETSQALLGIRDRVQNALFNLIRDNSNNMTSVTSRFGNLLLLFPPLAKLSSLIGENVQLAKMFGIPIDSLLVELYVDADSPELISQGSHARERSDVSTQTASLEGASASMTPDVTSSEFVKMEQNESPSSSEEPMCIGAPATSSANAVATNLAADLLGLLPNFDATGLDLASAAAAAATSVNYSHFYGFGNLGGSLDDSSSSGTGSVGSFAPHSAPPISNNVNPFAVHGFFDNSAPNTGVVHNQPFRFV,not soluble
10,MNNTVIACVDGSPSTRPVCEYAAWAAGKLGAPLALLHVLEKSETPAVSDLTGSIGIDSREQLTEALVRVEGERSRLLMAQGKAVLAGCAELLKQTGQPDAQLLQKHGALDEILAELGEVRLMVLGRRGTQNQVGSHLESVIRLQKNPVLIVPETFTPPARVMFAYDGSSESRKNLTRLTVSPLLHGLSCHIVMVNGDMSALQDAQAVLQEAGITTETRLLEDESVTGALCRYADAHDIDLTVMGACGHSRLRRFFIGSHTTEMLSESRQPLLMLR,not soluble
11,MTKKYSRFLPSEKSFNIDNFPYYWVTQVHSQYVHNIDNVLKRYGLDNSRRRILLALNIKQNASVSELSEMIISKMSTTTKIVYRLKDEGFVNTYSCENDARITRVNLTEQGKEMIHKINSLTGAVLEQSFEGLTPLQIEKMIDGLKIIFKNLSS,not soluble
12,SLLTTCKSVLKLPYLEKIKVVAGEKGLNRIITWVQVVEYPEYSKWLKGGELILISGIAIKNNINSLVNFIRDINSRSLSGIVISIGPYIKEIPKEVIEIGNQLDFPIFEIPFEVKFIDVSQSICKAIFANKVNQESMENFMKDIIFRDFTFSEDILSRAVAYGYNPKTKYISFVVELHNEKDMLECDLKTKQYIEQIVIEVLGEWNKRSIHIMQYNSIILMLPKNEKRTIKNIAMNIIEEIISKAKNTSVNIGVGGEFSELRDFKISVSEAHRCLKVLKLNNDNNTVISYDELGIYKLFFQMDNLEEMKKFYLDVLKKLIDYDSKN,soluble
13,MVGGMMESYSKFHTILNELKHSAAQFDRQRGEHHRPLFDEVLFHCHGKLLTPCVEEAHSTLQALIREKESGRLTALRAEYLSERLLAQIAALTRELSTQNVRRNEPKPHAYFKKPINELYQELAQHQDWERRLMDLVRDKALLLEQASATEKAAAQQALLQSEQRLNRCREAKIKIEKRITTQERKA,not soluble
14,GSHMPTAIESCMVKFELSSSKWHMTSPKPHCVNTTSDGKLKILQSGTYLIYGQVIPVDKKYIKDNAPFVVQIYKKNDVLQTLMNDFQILPIGGVYELHAGDNIYLKFNSKDHIQKTNTYWGIILMPDLPFIS,soluble
15,MPEPDKQATRKKRTTSSLTDSTVFDPAKQVLWSRPGYLVRRLNQIHYALFYEECKTQNVTPVQYGVLTALSLSPWLDQTAIGMELGLDRTTTADVIKRLQERGLVERRVNPNDKRSRQAVITQEGLRIMGLLQGGMARAQQRLLEPLSPRNREIFMKLLSTLVDANNQYSRTALKAM,not soluble
16,MSLGDPGLKFQEYILQHIEPSKSYEIAICQSIGRRGKMEDTVVVDCSSIEGTDIIGVFDGHNGKDAAYLCTEQYIKTFKENEGTFEAKLIKTHKQLHDKSCETSKSGTTSTVAFIDKDTIRIAYCGDSPAYIYKNNKIKKITKEHKATNSAEVERIEMNGGVVFGMFGVKRVNGQIMVTRSIGDPSLHPPLTTEPDFIKLEKKGIELLFLMSDGITDGVTEKELEDIISKSGGMFNIAFDTLKLAYVNESSDNLTFIVIKINEGHHHHHH,soluble
17,MLVPSANRWVPKFKSKKTEKKLAPDGKTELLDKDEVERKMKSLLNKLTLEMFDAISSEILAIANISVWETNGETLKAVIEQIFLKACDEPHWSSMYAQLCGKVVKELNPDITDETNEGKTGPKLVLHYLVARCHAEFDKGWTDKLPTNEDGTPLEPEMMSEEYYAAASAKRRGLGLVRFIGFLYRLNLLTGKMMFECFRRLMKDLTDSPSEETLESVVELLNTVGEQFETDSFRTGQATLEGSQLLDSLFGILDNIIQTAKISSRIKFKLIDIKELRHDKNWNS,soluble
18,MGSDKIHHHHHHMIVGFAGKLYKNYEKDGIELLKEVTDEALDIAGLNYADVDGIMANIGRGSFHGNRTYLNPPAQISEYFGIKPKIIEHVQYGGPSVLSMIYRAYKAIKAGDAETILCIQGGKISHLRDNHFQKTDIIDSPFDEYIKIYDQMSPISDYAMVAYRHSKLFGTTDEQRARIAVIQRYNASYNPKALFRNPITVEDVLKSRIVSYPLHLLEIVYPIDGFHVFVVSKRSSKSALRNIDILAYGEAHWPNPPAEWDDIIYTPTTESAKRASFDLNRVDAFQLYDSFTITVMLQMEDIGLVEKGKVGQFVESHDLSFKGDVPINTGGGSLNTGQPAYMSGGVILEEALLQLNDMANGHQVKGANVIFLNGIGWWSRRHSVTLVLGERK,not soluble
19,HRQLLSRDTHGFNVTVTSTIPEDAGLGDQEALIMAAALAFAHDYEDVHTAPIKAKFADVCFQASQAATGRPHVRARFDSALRGLASDLNIVDYSDGSVTHFPHPLNTQSDYAAFVVIPPVGAEQTAEVERRQAFITSAEKAFGTDSLRVLPDARERVIEWLQAVHEVCGTDDVPTITEAANWLEFMENETQAAINAAQAIKSRRHAACFDIVSESQRNLESLYTITTTDAMLSQLCLSRGAVSAR,not soluble
20,MPQLSPWQHYQKDLTRDGFSHDPAQEIAVKALQRVYEDLTAAEEPNSLFGKLFTSFGLTSAPAPTKGLYLWGGVGRGKTYLMDTFFDTLPGNQKLRAHFHRFMHQLHLDLDALKGTRDPLLVIAKQMAAKYRVICFDEFFVSDITDAMLLGTLFQALFKEGVVLVATSNIIPDDLYKNGLQRARFLPAIALINQHCEVLNVDSGIDYRLRTLEQAEIYHHPLDEQADTNLLRYFGQLAPEAEISTEAIEIEGRAISIRQQAQGVLLADFRALCDGPRSQRDYMELARIYHTVLVSGIEQMGAFLTGDDIARRFLAMVDEFYERNVKLIVSAQVPLEDIYADGLLSFEFRRCRSRLIEMQSHDYLKSEHLPAAALEHHHHHH,soluble
